In patent US6521594:
Starred links: 1 amine or outer side, 2 acyl side, 3 side chain; linkers in the order of their positions; H or OH if unused. Positions of bridges follow the written chain, without caps; N, C: chain ends. Non-standard residues stand in square brackets, D forms with d. Primed or numbered codes have the meaning given here. No end group written: not given here. Pmc′ = pentamethylenecysteine (from Boc-D/L-Pmc), O=C(C(N[*:1])C1(S[*:3])CCCCC1)[*:2]; Cys(β,β-pentamethylene) = O=C([C@@H](N[*:1])C1(S[*:3])CCCCC1)[*:2]; Tyr(Me)″ = COc1ccc(C[C@H](N[*:1])C(=O)[*:2])cc1; 2Nal = N[C@@H](Cc1ccc2ccccc2c1)C(=O)O; Pen = CC(C)(S)[C@H](N)C(=O)O

T1: Vitronectin receptor (human), P06756
T1 chain 1: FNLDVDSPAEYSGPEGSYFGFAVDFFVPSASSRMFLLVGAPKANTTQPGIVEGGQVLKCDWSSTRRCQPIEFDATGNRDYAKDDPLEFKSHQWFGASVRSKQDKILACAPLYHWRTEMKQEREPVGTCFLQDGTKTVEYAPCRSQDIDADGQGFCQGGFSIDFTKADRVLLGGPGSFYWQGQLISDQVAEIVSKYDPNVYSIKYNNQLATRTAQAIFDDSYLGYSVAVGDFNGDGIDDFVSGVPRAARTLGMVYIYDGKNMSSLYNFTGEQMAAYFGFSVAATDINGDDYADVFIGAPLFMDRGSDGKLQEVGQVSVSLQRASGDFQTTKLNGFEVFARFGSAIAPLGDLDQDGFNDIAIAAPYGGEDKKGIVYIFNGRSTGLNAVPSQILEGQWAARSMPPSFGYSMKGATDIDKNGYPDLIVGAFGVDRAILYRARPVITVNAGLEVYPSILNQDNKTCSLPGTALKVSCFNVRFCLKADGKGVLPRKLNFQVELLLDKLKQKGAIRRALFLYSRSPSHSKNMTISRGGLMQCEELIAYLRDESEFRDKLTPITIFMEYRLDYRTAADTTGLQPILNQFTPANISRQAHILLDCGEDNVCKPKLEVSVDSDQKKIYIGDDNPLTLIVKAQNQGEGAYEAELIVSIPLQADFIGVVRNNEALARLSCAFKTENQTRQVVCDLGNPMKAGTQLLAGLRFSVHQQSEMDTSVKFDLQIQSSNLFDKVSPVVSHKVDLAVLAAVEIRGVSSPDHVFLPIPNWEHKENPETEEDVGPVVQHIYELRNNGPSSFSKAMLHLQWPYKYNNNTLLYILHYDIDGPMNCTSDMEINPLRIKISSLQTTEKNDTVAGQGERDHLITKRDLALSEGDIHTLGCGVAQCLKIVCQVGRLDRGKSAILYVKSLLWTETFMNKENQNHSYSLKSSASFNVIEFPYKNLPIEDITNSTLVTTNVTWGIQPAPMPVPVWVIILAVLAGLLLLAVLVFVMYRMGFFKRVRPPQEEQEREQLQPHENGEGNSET
T1 chain 2: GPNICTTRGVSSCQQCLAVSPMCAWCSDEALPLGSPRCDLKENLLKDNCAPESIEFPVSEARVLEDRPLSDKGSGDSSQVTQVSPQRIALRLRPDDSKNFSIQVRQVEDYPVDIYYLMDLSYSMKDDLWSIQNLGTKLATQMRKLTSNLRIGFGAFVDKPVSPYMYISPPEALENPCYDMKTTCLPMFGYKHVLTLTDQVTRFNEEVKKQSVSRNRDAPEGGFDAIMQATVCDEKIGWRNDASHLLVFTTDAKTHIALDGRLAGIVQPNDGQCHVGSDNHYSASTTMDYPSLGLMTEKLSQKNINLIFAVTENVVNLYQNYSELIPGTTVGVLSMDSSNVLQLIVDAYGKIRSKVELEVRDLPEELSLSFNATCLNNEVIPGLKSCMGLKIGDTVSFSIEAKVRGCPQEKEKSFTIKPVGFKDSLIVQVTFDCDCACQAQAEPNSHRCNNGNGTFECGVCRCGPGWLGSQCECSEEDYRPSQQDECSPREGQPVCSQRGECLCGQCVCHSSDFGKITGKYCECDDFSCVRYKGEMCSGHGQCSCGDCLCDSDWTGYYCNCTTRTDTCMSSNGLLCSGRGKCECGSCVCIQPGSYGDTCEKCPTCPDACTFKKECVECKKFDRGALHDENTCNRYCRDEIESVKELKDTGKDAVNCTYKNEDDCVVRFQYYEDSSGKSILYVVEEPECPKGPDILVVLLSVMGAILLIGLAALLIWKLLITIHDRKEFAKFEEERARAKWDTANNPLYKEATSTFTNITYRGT


Assays:
[1] = molecular target: Platelet glycoprotein IIb/IIIa (human), P08514; experiment: competition, ELISA or liposome assay
[2] = molecular target: Platelet glycoprotein IIb/IIIa (human), P08514; experiment: cell-based or functional assay
[3] = molecular target: T1, Vitronectin receptor (human), P06756; experiment: competition, ELISA or liposome assay, vitronectin coated
[4] = molecular target: Platelet glycoprotein IIb/IIIa (human), P08514; experiment: ELISA; details: modification not given
[5] = molecular target: Fibronectin receptor (human), P08648; experiment: ELISA; details: modification not given
Chain of Fibronectin receptor (human), P08648 (P08648 42-1049, chain 1 of 2): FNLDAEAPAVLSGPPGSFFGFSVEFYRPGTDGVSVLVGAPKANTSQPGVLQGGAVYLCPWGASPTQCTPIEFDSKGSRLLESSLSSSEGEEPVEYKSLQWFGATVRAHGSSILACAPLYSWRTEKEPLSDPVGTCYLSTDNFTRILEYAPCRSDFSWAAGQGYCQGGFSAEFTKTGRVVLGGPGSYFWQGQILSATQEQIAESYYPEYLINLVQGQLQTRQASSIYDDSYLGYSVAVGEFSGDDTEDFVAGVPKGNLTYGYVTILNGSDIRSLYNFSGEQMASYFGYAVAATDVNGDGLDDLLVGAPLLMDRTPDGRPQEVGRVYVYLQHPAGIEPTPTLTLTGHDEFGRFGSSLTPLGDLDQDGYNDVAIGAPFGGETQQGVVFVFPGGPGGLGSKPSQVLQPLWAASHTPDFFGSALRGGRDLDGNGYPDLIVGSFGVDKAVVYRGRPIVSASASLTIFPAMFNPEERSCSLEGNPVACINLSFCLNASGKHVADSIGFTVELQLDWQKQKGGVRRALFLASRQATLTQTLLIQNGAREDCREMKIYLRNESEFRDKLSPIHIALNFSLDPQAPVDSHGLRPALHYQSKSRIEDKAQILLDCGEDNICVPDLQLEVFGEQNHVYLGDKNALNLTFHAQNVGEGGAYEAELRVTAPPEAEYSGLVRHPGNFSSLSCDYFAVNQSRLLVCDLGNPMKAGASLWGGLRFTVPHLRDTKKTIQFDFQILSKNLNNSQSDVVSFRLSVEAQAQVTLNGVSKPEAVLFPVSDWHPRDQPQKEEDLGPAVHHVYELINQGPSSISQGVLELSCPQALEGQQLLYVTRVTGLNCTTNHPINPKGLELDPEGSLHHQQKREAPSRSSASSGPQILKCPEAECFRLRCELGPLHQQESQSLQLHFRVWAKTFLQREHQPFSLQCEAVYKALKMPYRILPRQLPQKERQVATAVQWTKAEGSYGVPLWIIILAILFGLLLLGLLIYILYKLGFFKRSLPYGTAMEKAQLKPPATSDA
Chain of Fibronectin receptor (human), P08648 (chain, as listed by the source, chain 2 of 2): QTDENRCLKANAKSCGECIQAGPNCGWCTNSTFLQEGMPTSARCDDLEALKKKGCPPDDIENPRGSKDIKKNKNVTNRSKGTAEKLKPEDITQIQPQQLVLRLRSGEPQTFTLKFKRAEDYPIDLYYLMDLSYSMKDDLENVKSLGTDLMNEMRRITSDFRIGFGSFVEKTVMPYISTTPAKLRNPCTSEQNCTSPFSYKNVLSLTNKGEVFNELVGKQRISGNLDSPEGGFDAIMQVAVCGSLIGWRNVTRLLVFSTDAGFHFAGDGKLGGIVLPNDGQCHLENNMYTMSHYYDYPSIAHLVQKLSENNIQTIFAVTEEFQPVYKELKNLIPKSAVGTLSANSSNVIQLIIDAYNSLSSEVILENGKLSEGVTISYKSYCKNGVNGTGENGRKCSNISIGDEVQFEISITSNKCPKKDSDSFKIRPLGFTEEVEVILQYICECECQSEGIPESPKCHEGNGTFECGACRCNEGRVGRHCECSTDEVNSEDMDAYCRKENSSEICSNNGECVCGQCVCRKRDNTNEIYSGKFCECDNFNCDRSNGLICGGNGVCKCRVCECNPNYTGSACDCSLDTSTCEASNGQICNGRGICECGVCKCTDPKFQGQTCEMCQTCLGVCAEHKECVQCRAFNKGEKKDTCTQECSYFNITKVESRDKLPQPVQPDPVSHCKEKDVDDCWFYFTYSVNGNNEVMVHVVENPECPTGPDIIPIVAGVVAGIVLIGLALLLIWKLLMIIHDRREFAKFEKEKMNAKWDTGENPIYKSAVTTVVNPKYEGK

| Binder | IC50 [4] | IC50 [5] | further results |
| --- | --- | --- | --- |
| G[Pen]IARGDWNCA (disulfide 2-10) [G(Pen)…] | – | – | IC50 [1]: 0.01 µM; IC50, ADP-Stimulated Aggregation [2]: 1.2 µM; IC50 [3]: 0.04 µM |
| R[Cys(β,β-pentamethylene)]GHRGD[2Nal]RCR (disulfide 2-10) [R(Pmc)GHRGD(2-Nal)RCR] | 0.07 µM | – | – |
| R[Pmc′]RHRGD[Y‑OMe]RCR (disulfide 2-10) [R(Pmc)RHRGD(Y-OMe)RCR] | 0.07 µM | – | – |

Now from value to binder, other results behind:

| IC50 [4] | IC50 [5] | Binder | further results |
| --- | --- | --- | --- |
| – | 10 µM | R[Cys(β,β-pentamethylene)]GXRGD[Tyr(Me)″]RCR (disulfide 2-10; not fully specified (residue 4); printed as R(Pmc)G(DY)RGD(Y-OMe)RCR) [R(Pmc)G(DY)RGD(Y-OMe)RCR] | – |
| – | > 10 µM | R[Pmc′]SHRGD[Y‑OMe]RCR (disulfide 2-10) [R(Pmc)SHRGD(Y-OMe)RCR] | – |
